From patent US10480012B2, “CYP-P22 biocatalytic nanoparticles with cytochrome P450 activity for prodrug activation” (UNIVERSIDAD NACIONAL AUTÓNOMA DE MÉXICO, priority 2015, dated 2019) come the findings set out here.

The test system of data set [1] is human MCF7 breast cancer cells. Nature of the data set: CYP activity in tumor cells treated with nanoparticles (BFC fluorescence assay). Type of data set: cell-based. The note with it: 100 μM BFC, fluorescence images. On the procedure:
I) The presence of biocatalytic nanoparticles (loaded nanoparticles) with CYP activity is evaluated in transformation of 7-benzyloxy-4-trifluorometyl-coumarin (BFC) monitored by fluorescence according to the method of Donato et al.. The fluorescence assay for determining CYP activity is performed with a direct incubation of cultured tumor cells in a 12-well plate in the presence of BFC 100 μM. […] After 60 min incubation at 37° C. the incubation medium is removed and the conjugated products of CYP transformation will be hydrolyzed with a mixture of 3-giucoronidase/arylsulfatase for 2 hours at 37° C. Finally, samples are diluted with the corresponding solution and product fluorescence (7-hydroxy-4-trifluoromethylcoumarin, HFC) is quantified in a spectrofluorimeter with 410 nm excitation and 510 nm emission.
J) Affinity evaluation of functionalized loaded nanoparticles in tumor cells in vitro is carried out in human MCF7 breast cancer cells that are maintained in DMEM medium (Dulbecco's Modified Eagle's Medium) supplemented with 10% fetal bovine serum. […] The presence of biocatalytic nanoparticles (CYP-P22) with CYP activity is evaluated in the transformation of 7-benzyloxy-4-trifluoromethyl-coumarin (BFC) monitored by fluorescence according to the method of Donato et al.. […]

Data set [2] can be described thus: Kinetic parameters of encapsulated and free CYP with 2,6-DMP and H2O2. Type of data set: biochemical. On the procedure: To calculate the kinetic parameters using 2,6-DMP as a substrate, two curves were constructed with two different concentrations of hydrogen peroxide, 5 mM and 60 mM. Reactions were carried out in 0.1 mL (50 mM Tris-HCl pH 8) with the following phenol concentrations: 10, 25, 50, 125, 250 and 500 μM. The reaction was started by adding 5 mM or 60 mM of H2O2. The amount of encapsulated enzyme used was 42.9 picomoles (assays with 5 mM H2O2) and 21.45 picomoles (assays with 60 mM H2O2); the amount of protein was determined by a concentration assay, specific for CYP450, for binding to CO. The catalytic activity was spectrophotometrically monitored at 468 nm (ε468=14800 M^−1 cm^−1 using an Agilent 8453 UV-vis spectrophotometer. Catalytic constants were obtained through the GraphPad Prism 6 program.
H) Catalytic capacity of P22 capsids with CYP inside is evaluated. Reactions were carried out in 0.1 mL (50 mM Tris-HCl pH 8) with the following phenol concentrations: 10, 25, 50, 125, 250 and 500 μM. The reaction was started by adding 5 mM or 60 mM of H2O2. The amount of encapsulated enzyme used was 42.9 picomoles, the amount of protein was determined by a CO binding assay specific for CYP450. Catalytic activity was spectrophotometrically monitored at 468 nm (ε468=14800 M^−1 cm^−1). […] The encapsulated enzyme follows a Michaelis-Menten kinetics as does free CYP.

Data set [3] in a line: pH activity profile. Type of data set: biochemical. The following applies: 500 μM 2,6-DMP, 5 mM H2O2. On the procedure: To determine the activity profile at different pH values for the encapsulated and free enzyme, catalytic activity was measured at the following pHs: 5 (100 mM sodium acetate), 6 (100 mM potassium phosphate}, 7, 8 and 9 (100 mM Tris-HCl), 10 (100 mM borates). Catalytic activity was measured in a final volume of 0.1 mL using as substrate 500 μM 2,6-DMP and initiating the reaction with 5 mM H2O2.

Data set [4] can be described thus: Temperature stability, activity retention at 40 and 50° C. Type of data set: physicochemical. On the procedure: Stability of encapsulated CYP and the free enzyme was determined by measuring the percentage of activity retention at different times when the protein was incubated at 40 and 50° C. in a water bath. Incubation times for each of the temperatures were 0, 5, 10, 15 and 30 min. At the end of each time, an aliquot was removed from the sample, centrifuged for 1 min at 16,000×g and left to rest for 10 min to temper the sample before measuring activity. Catalytic activity was measured in a final volume of 0.1 mL in 100 mM Tris-HCl buffer pH 8 using 500 μM 2,6-DMP as substrate and initiating the reaction with 5 mM H2O2.

Data set [5] deals with trypsin. Nature of the data set: Stability to protease degradation (trypsin), residual activity. Type of data set: physicochemical. The following applies: 10 U trypsin per mg protein, room temperature. On the procedure:
For proteolysis assays, the encapsulated and free enzyme was treated with 10 U of trypsin per mg protein, incubating for 1 and 20 h at room temperature. At the end of each time, an aliquot was taken out of the sample and the residual activity was measured in 100 mM Tris-HCl buffer pH 8 using 500 μM 2,6-DMP as substrate and initiating the reaction with 5 mM H2O2.

B1: CYP-P22: cytochrome P450 (CYPBM3 “21B3” fused to scaffold protein) encapsulated in a bacteriophage P22 nanocapsid (protein)
chain: MAIKEMPQPKTFGELKNLPLLNTDKPVQALMKIADELGEIFKFEAPGRVTRYLSSQRLVKEACDESRFDKNLSQALKFVRDFAGDGLATSWTHEKNWKKARNILLPSLSQQAMKGYHAMMVDIAVQLVQKWERLNSDEKIEVPEDVTRLTLDTIGLCGFNYRFNSFYRDQPHPFITSMVRALDEAMNKLQRANPDDPAYDENKRQFQEDIKVMDLVDKIIADRKASGEQSDDLLTHMLHGKDPETGEPLDDENIRYQIITFLIAGHETTSGLLTFALYFLVKNPHVLQKAAEEAARVLVDPVPSYKQVKQLKYVGMVLNEALRLWPTAPAFSLYAKEDTVLGGEYPLEKGDELMVLIPQLHRDKTIWGDDVEEFRPERFENPSAIPQHAFKPFGNGQRACIGQQFALHEATLVLGMMLKHFDFEDHTNYELDIEETLTLKPEGFVIKAKSKKIPLGGIPSPSTGSLVPRGSCRSNAVAEQGRKTQEFTQQSAQYVEAARKHYDAAEKLNIPDYQEKEDAFMQLVPPAVGADIMRLFPEKSAALMYHLGANPEKARQLLAMDGQSALIELTRLSERLTLKPRGKQISSAPHADQPITGDVSAANKDAIRKQMDAAASKGDVETYRKLKAKLKGIR
B1: the “cytochrome P450 activity in treated tumor cells versus endogenous activity in untreated cells” value in data set [1] is recorded as “much greater”. For the same molecule, the “catalytic activity using 2,6-DMP and H2O2 as substrates” value in data set [2] is on record as “catalytically active”. In data set [2] (substrate 2,6-DMP, 5 mM H2O2, 50 mM Tris-HCl pH 8), the kcat app was 127.2 (±2.3) min^−1. Further, in data set [3], the “pH of optimum activity” value was “pH 8 and 9”. Further, in data set [4] (40° C.), the “stability compared with free enzyme” value was “practically the same”. In addition, in data set [4] (50° C.), the “inactivation compared with free CYP” value is listed as “even faster than that found for free CYP”. For the same molecule, the “activity retained after incubation with trypsin” value came out at 96% in data set [5] (1 hour) and 38% in data set [5] (20 hours).
